Laboratory results: US20200223906A1 (Adimab, published 2020)
Where a chain is given by its changes, count along the chain named.

B1: ADI-18924 (antibody, V domains shown)
VH: QVQLVQSGAEVKKPGESLKISCQGSGYSFSSFWIVWVRQMPGKGLEWMGSIYPGDSDTRYTPSFQGQVTISADKSTSTAYLQWNSLKPSDTAMYYCARCSLSCDYYGVNLWGQGTTVTVSS
VL: QSVVTQPPSVSGAPGQRVTISCSGSSSNIGARSDVHWYQQLPGKAPKLLIYGNTNRPLGVPDRFSGSTSGTSASLAISGLQAEDEGYYYCQSYDSSLSGFYVFGTGTKLTVL
notes: full-length IgG from yeast
B2: ADI-18922 (antibody, V domains shown)
VH: QVQLQESGPGRVKPSETLSLTCSVADGSISSGHYYWGWVRQPPGKGLEWIATIHDSGATYYNPSLQSRVTISVDTSKNQFSLKVNSVTAADTAVYYCASRRGSGWFFDSWGQGTLVTVSS
VL: DIVLTQSPATLSVSPGERVTLSCRASHSVNYNLAWYQQKPGQAPRLLIYGSSTRATGLPARFSGSGSGTEFTLTISSLQSEDFAIYYCQQYNNWPPGGTFGQGTKVEIK
notes: full-length IgG from yeast; also called Antibody Number 276; Ab # 276
B3: ADI-18876 (antibody, V domains shown)
VH: QVQLQESGPGLVKPSQTLSLTCTVSGPSISSGDYYWTWIRQPPGKGLEWIGYIYNSGSTDYNPSLKSRITMSLDRSKNQFSLNLSSVTAADTAVYFCARDVGTLVLPTVAYYYGMDVWGQGTTVTVSS
VL: EIVLTQSPGTLSLSPGERATLSCRASESISSSYLAWYQQKPGQAPRLLIYDASSRATGIPDRFSGSGSGTDFTLTISSLEPEDFAVYYCQQYGSSPLVTFGPGTKVDIK
notes: full-length IgG from yeast
B4: ADI-18946 (antibody, V domains shown)
VH: QVQLVQSGGGVVQPGRSLRLSCAASGFTFSDYAMHWVRQAPGKGLEWVAIISYDANNKYYADSVKGRFTISRDNSKNTVYLQMNSLRPEDTAVYYCAKEEWLVPAYWGQGILVTVSS
VL: QSVLTQPASVSGSPGQSITISCTGTSSDVGGYNYVSWYQQHPGKAPKLLIYEVSNRPSGVSNRFSGSKSGNTASLTISGLQPEDEADYYCSSYSTNSAPFGTGTKLTVL
notes: full-length IgG from yeast
B5: ADI-18980 (antibody, V domains shown)
VH: QVQLVQSGAEVKKPGESLKISCKGFGYSFNSYWIAWVRQMPGKGLECMGIIYPGDSDTRYSPSFQGQVTISVDKSITTAYLQWSSLKVSDTAMYYCAKSNVGNTGWNYWGQGTLVTVSS
VL: EIVLTQSPATLSLSPGERATLSCRASHSVATDLAWYQQKPGQAPRLLIYDASKRATDVPARFSGSGSGTDFTLTISSLEPEDVAVYYCQEVRNWPPCTFGQGTKVDIK
notes: full-length IgG; also called Antibody Number 328
B6: ADI-18947 (antibody, V domains shown)
VH: QVQLVQSGGGVVQSGRSLRLSCAASGFTFSDNGMHWVRQAPGKGLEWVAGIFHDGSNKQYAESVKGRFIISRDNSKNTLYLQMNSLRAEDTALYFCARAPYDIWSGYCLDYWGQGTLVTVSS
VL: DIRMTQSPATLSLSPGESATLSCRASQSVINNLAWYQQRPGQAPRLLIYGASTRATGIPARFSGSGSETEFTLTISSLQSEDFAVYHCQQYSIWPQTFGQGTKLEIK
notes: full-length IgG from yeast
B7: ADI-18896 (antibody, V domains shown)
VH: B6 VH with Q1E, V5L, Q6E, H53Y, E62D, I69T, N77S, L93V, F95Y
VL: B6 VL with R3Q, S7T, L13M, S18R, I30N
notes: full-length IgG from yeast
B8: ADI-18955 (antibody, V domains shown)
VH: B6 VH with Q1E, Q6E, T28I, H53Y, E62D, I69T, N84K, L93V, F95Y
VL: B6 VL with R3Q, M4V, L13M, S18R, I30N, L104V
notes: full-length IgG from yeast; also called Antibody Number 306; Ab # 306
B9: ADI-18948 (antibody, V domains shown)
VH: EVQLLESGGGVVQSGRSLRLSCVASGFTFSDSGMHWVRQAPGKGLEWVAGLFYDGSNKQYADSVKGRFTISRDNSKSTLYLQMNSLRAEDTAVYYCARAPYDIWSGYCLDYWGQGTLVTVSS
VL: B6 VL with D1E, R3V, M4L, S12Y, L13M, S18R, I30N
notes: full-length IgG from yeast; also called Antibody Number 300; Ab # 300
B10: ADI-18899 (antibody, V domains shown)
VH: B9 VH with L5V, V23A, S32N, L51I
VL: B6 VL with M4L, L13M, S18R, I30N, L104V, E105D
notes: full-length IgG from yeast
B11: ADI-18938 (antibody, V domains shown)
VH: EVQLLESGGGLVQPGGSLRLSCAASGFTFSNYWMHWVRQAPGKGLVWVSRISGDGSDTTYADSVEGRFTISRDNARSTLYLQLNSLTGDDTAVYYCARDLWTTSPYFDLWGQGTLVTVSS
VL: EIVLTQSPGTLSASIGDRVTITCRASQSLNGWLAWYQQKPGKAPRLLIYKSSSLESGVPSRFSGSASGTEFTLTISSLQPDDFATYYCQQYNSWAFGQGTKVDVK
notes: full-length IgG from yeast; also called Antibody Number 291; Ab # 291
B12: ADI-18942 (antibody, V domains shown)
VH: QVQLQESGPGRVKPSQTLSLTCTVSGVSVTINDYYWTWLRQSPGKGLEWIGNIYNSGSTYQNPSLQSRVTMSVDTAKNHFSLKLTSVTAADTAVYYCARDLGTANNYYFGMDVWGLGTTVTVSS
VL: EIVMTQSPATLSLSPGERATLSCRASQSVSTYLAWYQQKPGQAPRLLIYNGSNRVTGTPARFSGSGSGTDFTLTISSVEPEDFAVYYCQQRSNWPPYTFGQGTKVEIK
notes: full-length IgG from yeast; also called Antibody Number 295; Ab # 295
B13: ADI-18968 (antibody, V domains shown)
VH: EVQLVESGPGLVKPSQTLSLTCTVSDVLISSGDYYWSWIRQSPGKGLEWLGYIYYTGKTKYNPSLESRITMSVDTSKNQFSLRLSSVTAADTAVYFCTRDLGYSTSSPSFYYGMDVWGQGTTVTVSS
VL: EIVLTQSPATLSLSPGERATLSCRASQSVGTYLAWYQQKPGQAPRLLIYDASYRVTGIPARFSASGSATDFTLTISSLEPEDFAVYFCQQRTNWPITFGQGTRLEIK
notes: full-length IgG from yeast
B14: ADI-18918 (antibody, V domains shown)
VH: QVQLVQSGAEVKKPGESLKISCKGSGYSFSSFWIGWVRQMPGKGLEWMGIIYPGDSDTRYSPSFQGQVTMSADTSINTAYLQWNSVKASDTAIYYCARLPVGSYYYFNLWGRGTLVTVSS
VL: EIVMTQSPATLSVSPGESATLFCRASQSISSDLAWYQQRPGQAPRLLIYDASTRATGVPARFSATGSEAEFTLTISGLQSEDFAVYYCQQYNNWLSWTFGQGTKLEIK
notes: full-length IgG from yeast

Experiments:
[1] = target: RSV F protein of subtype A (strain A2) on recombinant mKate-RSV virus (Respiratory syncytial virus subtype A …, UniProt P03420 26-574); experiment: cell-based or functional assay
[2] = target: RSV F protein of subtype B (18537) on recombinant mKate-RSV virus (Respiratory syncytial virus subtype B …, UniProt P13843 26-574); experiment: cell-based or functional assay
[3] = target: T1, RSV F subtype A, furin-cleaved ectodomain stabilized in the prefusion conformation (DS-Cav1) (Respiratory syncytial virus subtype A, UniProt P03420 26-524); experiment: BLI, IgG on AHQ sensor, 100 nM antigen
T1 construct: extracellular domain; Trimeric soluble antigen; also called Prefusion subtype A

[4] = target: T2, RSV F subtype A, furin-cleaved ectodomain stabilized in the postfusion conformation (F ΔFP) (Respiratory syncytial virus subtype A, UniProt P03420 26-109; P03420 147-524); experiment: BLI, IgG on AHQ sensor, 100 nM antigen
T2 construct: extracellular domain; Trimeric soluble antigen; also called Postfusion subtype A

[5] = target: T3, RSV F subtype B, furin-cleaved ectodomain stabilized in the postfusion conformation (F ΔFP) (Respiratory syncytial virus subtype B); experiment: BLI, IgG on AHQ sensor, 100 nM antigen
T3 construct: extracellular domain; Trimeric soluble antigen; also called Postfusion subtype B

[6] = target: T4, RSV F subtype B, furin-cleaved ectodomain stabilized in the prefusion conformation (DS-Cav1) (Respiratory syncytial virus subtype B); experiment: BLI, IgG on AHQ sensor, 100 nM antigen
T4 construct: extracellular domain; Trimeric soluble antigen; also called Prefusion subtype B

[7] = target: RSV F protein of subtype A (strain A2) on recombinant mKate-RSV (respiratory syncytial virus subtype A …, UniProt P03420 26-574); experiment: cell-based or functional assay
[8] = target: RSV F protein of subtype B (18537) on recombinant mKate-RSV (respiratory syncytial virus subtype B …, UniProt P13843 26-574); experiment: cell-based or functional assay
[9] = target: T5, RSV F ectodomain stabilized in the postfusion conformation (F ΔFP), subtype B (respiratory syncytial virus subtype B, UniProt P13843 26-109; P13843 147-524); experiment: BLI (Octet), IgG on AHQ sensor, 100 nM antigen
T5 construct: extracellular domain; Trimer; also called Postfusion subtype B

| Binder | Neut IC50 (µg/ml) subtype A [1] [µg/mL] | Neut IC50 (µg/ml) subtype B [2] [µg/mL] | Kd [3] [nM] | Kd [4] [nM] | Kd [5] [nM] | Kd [6] [nM] | Neut IC50 subtype A [7] [µg/mL] | Neut IC50 subtype B [8] [µg/mL] | Kd [9] [nM] |
| --- | --- | --- | --- | --- | --- | --- | --- | --- | --- |
| B1 | 0.572 | 1.07 | 6.48 | 0.411 | 0.321 | – | – | – | – |
| B2 | > 10 | 5.05 | 3.47 | 0.322 | 0.287 | 5.27 | – | – | – |
| B3 | 0.037 | 0.179 | 0.707 | 1.71 | 0.179 | 0.316 | – | – | – |
| B4 | 0.093 | 0.227 | 0.158 | 0.206 | 0.166 | 0.157 | – | – | – |
| B5 | – | – | – | – | – | – | 3.6 | > 10 | 0.35 |
| B6 | 1.3 | 3.6 | 2.45 | 0.296 | 0.282 | 2.2 | – | – | – |
| B7 | 1.1 | 4.72 | 2.27 | 0.279 | 0.27 | 1.81 | – | – | – |
| B8 | 1.93 | 3.12 | 0.599 | 0.256 | 0.25 | 2.37 | – | – | – |
| B9 | 1.12 | 4.35 | 4.55 | 0.257 | 0.247 | 2.1 | – | – | – |
| B10 | 0.742 | 2.7 | 1.92 | 0.266 | 0.251 | 1.59 | – | – | – |
| B11 | 0.837 | 4.25 | 0.165 | 0.216 | 0.168 | 0.15 | – | – | – |
| B12 | 0.374 | 0.614 | 0.865 | 0.281 | 0.258 | 0.512 | – | – | – |
| B13 | 0.909 | 0.541 | 1.98 | 0.438 | 0.305 | 0.602 | – | – | – |
| B14 | 0.377 | 4.59 | – | 0.567 | 0.409 | – | – | – | – |
